± gives the standard deviation of the averaged measurements.
System: ATP
Experiment: switch fluorescence ratio, 500 uM ATP over buffer (Cy3 cluster intensity, sum of 5 cycles each) (fold (ratio)); higher = stronger signal-on switching upon ATP binding; sequences stand for … in TCGTCGGCAGCGTCAGATGTGTATAAGAGACAGTTTTTTTTTTTTTTTTTTTTTTTTT…TC
Conditions: aptamer strand: ATP DNA aptamer (quencher-CACCTGGGGGAGTATTGCGGAGGAAGG + anchor), 100 nM annealed; ATP concentration: 500 uM
In short: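 Per cluster, summed Cy3 intensity from the target cycles was divided by that from the buffer cycles to give the fluorescence ratio, then averaged per switch-domain sequence. Clusters outside 100-1000 RFU were excluded. The Cy3-labelled switching-strand clusters, on a modified Illumina MiSeq flow-cell, were annealed to 100 nM quencher-labelled ATP aptamer and imaged in selection buffer, then after 15 min with 500 uM ATP at 22 °C, for five cycles with NaOH stripping and re-annealing between them.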
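Further: ATP exposure 15 min at 22 °C before imaging.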

CAGGGATTTA
switch fluorescence ratio: 0.978 ± 0.024

TGGTTGTCCC
switch fluorescence ratio: 1.01 ± 0.038

TAGTTATGTT
switch fluorescence ratio: 0.96389 ± 0.00072

AAAGTTAAGT
switch fluorescence ratio: 0.976 ± 0.0036

GCTGTAGACT
switch fluorescence ratio: 0.992 ± 0.038

CAAGGCTCAA
switch fluorescence ratio: 1 ± 0.0013

CGACACCGTG
switch fluorescence ratio: 1.025 ± 0.0013

TTTCGTTCGC
switch fluorescence ratio: 1.302 ± 0.013

ATATTCTTGG
switch fluorescence ratio: 0.9852 ± 0.0026

AGATTGTGCT
switch fluorescence ratio: 0.975 ± 0.046

TGGTGAGGGT
switch fluorescence ratio: 0.999 ± 0.025

ACAGTTGCTC
switch fluorescence ratio: 1.02 ± 0.02

GGGCGCTTCT
switch fluorescence ratio: 0.9913 ± 0.0072

AAGGGGCGGG
switch fluorescence ratio: 0.952 ± 0.011

AACAGTGATA
switch fluorescence ratio: 1.01 ± 0.027

CCTGTTTTTT
switch fluorescence ratio: 1.02 ± 0.022

AGATATGCGT
switch fluorescence ratio: 1.025 ± 0.0013

TATTATAATA
switch fluorescence ratio: 0.98 ± 0.035

AAGTTAGGGA
switch fluorescence ratio: 0.919 ± 0.083

TGGGCGGTA
switch fluorescence ratio: 0.963 ± 0.026

GCAGTCTGTG
switch fluorescence ratio: 0.98 ± 0.03

CAGTTTGGGG
switch fluorescence ratio: 0.982 ± 0.019

ATAGGGAATG
switch fluorescence ratio: 0.9986 ± 0.007

TATGATGCTA
switch fluorescence ratio: 1.03 ± 0.088

AATCAAATTA
switch fluorescence ratio: 0.985 ± 0.025

GCAGGTATTG
switch fluorescence ratio: 1.02 ± 0.012

TCAGAGGTTT
switch fluorescence ratio: 0.973 ± 0.024

TTGGTTGAAA
switch fluorescence ratio: 1.01 ± 0.013

AGGGTAGCTT
switch fluorescence ratio: 0.999 ± 0.031

GGCTGGGGCA
switch fluorescence ratio: 0.979 ± 0.021

AGCTTTTTGC
switch fluorescence ratio: 1.02 ± 0.038

GACGTACTCA
switch fluorescence ratio: 1.51 ± 0.17

AGTGAGGCGC
switch fluorescence ratio: 1.01 ± 0.024

GGGGGTGTCT
switch fluorescence ratio: 0.99 ± 0.034

TAACTCACTA
switch fluorescence ratio: 1.15 ± 0.017

GGAACAAGGT
switch fluorescence ratio: 0.988 ± 0.059

TGGGGGGCCT
switch fluorescence ratio: 0.991 ± 0.02

CTGTAGGGTT
switch fluorescence ratio: 1.01 ± 0.034

TCGGGGCGCG
switch fluorescence ratio: 0.975 ± 0.061

TTGATTGGTC
switch fluorescence ratio: 1.05 ± 0.019

TAGTAATTGG
switch fluorescence ratio: 0.987 ± 0.029

TTACTTCTCA
switch fluorescence ratio: 1 ± 0.011

CAAGACCACT
switch fluorescence ratio: 1.06 ± 0.045

AAAGTATGCT
switch fluorescence ratio: 0.9898 ± 0.0015

GCAGGCGGGC
switch fluorescence ratio: 0.991 ± 0.014

GGCTTTGAGG
switch fluorescence ratio: 1.01 ± 0.019

TGCGGGTTAA
switch fluorescence ratio: 1.02 ± 0.024

GGGGGAAAAA
switch fluorescence ratio: 0.998 ± 0.059

AGTTTTAGTC
switch fluorescence ratio: 1.01 ± 0.017

TGTAAAAGGT
switch fluorescence ratio: 1.04 ± 0.092

TGCATGTACC
switch fluorescence ratio: 1.21 ± 0.051

TGAGTGGCTC
switch fluorescence ratio: 0.9793 ± 0.0053

GCATAAGCTC
switch fluorescence ratio: 1.06 ± 0.062

TAGTTTTTTC
switch fluorescence ratio: 0.99 ± 0.021

ACGTGGGTCT
switch fluorescence ratio: 1.01 ± 0.028

TGGGTATGG
switch fluorescence ratio: 1.07 ± 0.072

TTCTGGGGGT
switch fluorescence ratio: 0.999 ± 0.051

GGTTTCAGAT
switch fluorescence ratio: 0.975 ± 0.016

TGCCTGGTAT
switch fluorescence ratio: 0.984 ± 0.019

AAACAGGGGG
switch fluorescence ratio: 0.982 ± 0.028

AATGCGCCGT
switch fluorescence ratio: 1.01 ± 0.022

AAGGTAGCAC
switch fluorescence ratio: 1.03 ± 0.011

CTGAAGTTGT
switch fluorescence ratio: 1.01 ± 0.032

CTGTGTGCCT
switch fluorescence ratio: 0.995 ± 0.07

TACTTTCGGT
switch fluorescence ratio: 1 ± 0.013

TCCGATTGAA
switch fluorescence ratio: 1.08 ± 0.011

TTTATGGGCG
switch fluorescence ratio: 1.34 ± 0.64

TTAGTCTGGG
switch fluorescence ratio: 1 ± 0.039

CTGAGGAGAC
switch fluorescence ratio: 1.05 ± 0.042

GGGGCAGCCA
switch fluorescence ratio: 1.03 ± 0.038

GTTTACCTTC
switch fluorescence ratio: 1.04 ± 0.062

TTTTGAGTGT
switch fluorescence ratio: 0.995 ± 0.051

CCGTTGCGTG
switch fluorescence ratio: 1 ± 0.036

AAGTGCGGGA
switch fluorescence ratio: 0.9967 ± 0.0086

TTTGAA
switch fluorescence ratio: 0.9556 ± 0.0024

CAACGGGTTC
switch fluorescence ratio: 1.03 ± 0.024

TAAAAGGCAA
switch fluorescence ratio: 1.14 ± 0.085

TGGTTTGCGC
switch fluorescence ratio: 1.36 ± 0.46

AAAAAGATTT
switch fluorescence ratio: 1.05 ± 0.081

TAAAGTAGTC
switch fluorescence ratio: 1.05 ± 0.044

TAAGGGTGTA
switch fluorescence ratio: 0.9934 ± 0.004

ATAGCAGGGT
switch fluorescence ratio: 1 ± 0.012

TCATCCGGAT
switch fluorescence ratio: 1.25 ± 0.049

GACTAGTTAT
switch fluorescence ratio: 0.993 ± 0.019

CGTATTTAGT
switch fluorescence ratio: 0.98 ± 0.035

TCTCAATGCG
switch fluorescence ratio: 1.02 ± 0.065

ATAGTTGGTG
switch fluorescence ratio: 0.994 ± 0.029

AGTTGGGGAG
switch fluorescence ratio: 0.9933 ± 0.0023

GTCAGGAATT
switch fluorescence ratio: 0.9981 ± 0.0062

ATTGGATTTT
switch fluorescence ratio: 1 ± 0.028

TGAATGATAG
switch fluorescence ratio: 0.983 ± 0.026

TGGGGTAGCG
switch fluorescence ratio: 0.998 ± 0.043

AGGATAAACT
switch fluorescence ratio: 1 ± 0.013

TTTTTTTCCT
switch fluorescence ratio: 1.02 ± 0.066

ACTTGGTCTT
switch fluorescence ratio: 0.974 ± 0.03

TTGGGTAAAT
switch fluorescence ratio: 0.985 ± 0.031

TCGGAGTAG
switch fluorescence ratio: 1.04 ± 0.031

TCATTGCTTT
switch fluorescence ratio: 1 ± 0.015

TTGGGGTGTG
switch fluorescence ratio: 1.01 ± 0.017

GAGAGCCGAA
switch fluorescence ratio: 1.02 ± 0.062

— the supplement of paper PMC10126150
